# Laboratory results: the supplement of paper PMC9112550, “Optimization of the antimicrobial peptide Bac7 by deep mutational scanning” (BMC Biology, 2022)
# System: Escherichia coli TOP10
# Experiment: shrunken log2 fold change of peptide-encoding DNA abundance (4.5 h post-induction vs induction); higher = less antimicrobial activity (less host growth inhibition)
# Conditions: time post-induction: 4.5 h; library: site-saturation at positions 5, 18, 19, 20
# 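Note: peptides expressed intracellularly from a pBAD plasmid library in pooled LB shake-flask culture, induced with 0.3% L-arabinose, DNA abundance read by NGS, three biological replicates, DESeq2 with apeglm shrinkage.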
row,Sequence,shrunken log2 fold change
1,RRIRCRPPRLPRPRPRPGDSPRP,-0.0113
2,RRIRSRPPRLPRPRPRPSRRPRP,0.208
3,RRIRMRPPRLPRPRPRPELIPRP,3.16
4,RRIRWRPPRLPRPRPRPTFYPRP,-0.298
5,RRIRARPPRLPRPRPRPWNRPRP,-0.0462
6,RRIRCRPPRLPRPRPRPLLMPRP,-0.195
7,RRIRNRPPRLPRPRPRPDRRPRP,-0.115
8,RRIRVRPPRLPRPRPRPSYHPRP,-0.819
9,RRIRSRPPRLPRPRPRPHNLPRP,-0.33
10,RRIRHRPPRLPRPRPRPPKFPRP,-0.223
11,RRIRSRPPRLPRPRPRPECSPRP,0.201
12,RRIRQRPPRLPRPRPRPHSSPRP,-0.271
13,RRIRMRPPRLPRPRPRPNKNPRP,0.152
14,RRIRFRPPRLPRPRPRPDIFPRP,-0.396
15,RRIRERPPRLPRPRPRPLKYPRP,-0.38
16,RRIRQRPPRLPRPRPRPHCSPRP,-0.104
17,RRIRRRPPRLPRPRPRPIDIPRP,-0.118
18,RRIRWRPPRLPRPRPRPLMSPRP,-0.0663
19,RRIRTRPPRLPRPRPRPSAEPRP,0.363
20,RRIRMRPPRLPRPRPRPAHYPRP,-0.248
21,RRIRMRPPRLPRPRPRPQAAPRP,0.87
22,RRIRQRPPRLPRPRPRPHSPPRP,0.000964

row,Sequence,shrunken log2 fold change
1,RRIRMRPPRLPRPRPRPPNTPRP,0.431
2,RRIRERPPRLPRPRPRPEYSPRP,-0.422
3,RRIRNRPPRLPRPRPRPDFSPRP,-0.0911
4,RRIRFRPPRLPRPRPRPTYEPRP,-0.3
5,RRIRCRPPRLPRPRPRPIQCPRP,-0.14
6,RRIRHRPPRLPRPRPRPGELPRP,0.0143
7,RRIRTRPPRLPRPRPRPWQCPRP,0.00408
8,RRIRERPPRLPRPRPRPHDWPRP,-0.0393
9,RRIRPRPPRLPRPRPRPNWSPRP,0.0504
10,RRIRNRPPRLPRPRPRPPCIPRP,-0.662
11,RRIRRRPPRLPRPRPRPHCWPRP,0.11
12,RRIRKRPPRLPRPRPRPTHFPRP,-0.105
13,RRIRGRPPRLPRPRPRPERDPRP,0.955
14,RRIRIRPPRLPRPRPRPQLHPRP,-0.252
15,RRIRMRPPRLPRPRPRPTKQPRP,0.296
16,RRIRDRPPRLPRPRPRPVQDPRP,0.0144
17,RRIRWRPPRLPRPRPRPISCPRP,-0.0467
18,RRIRRRPPRLPRPRPRPHAFPRP,-0.103
19,RRIRERPPRLPRPRPRPFCNPRP,-0.366
20,RRIRDRPPRLPRPRPRPTIAPRP,0.521
21,RRIRMRPPRLPRPRPRPPYSPRP,-0.0464
22,RRIRWRPPRLPRPRPRPGYVPRP,-0.215

row,Sequence,shrunken log2 fold change
1,RRIRGRPPRLPRPRPRPSVHPRP,-0.00458
2,RRIRSRPPRLPRPRPRPAAKPRP,0.155
3,RRIRNRPPRLPRPRPRPDQMPRP,0.0898
4,RRIRDRPPRLPRPRPRPDANPRP,0.163
5,RRIRHRPPRLPRPRPRPFRRPRP,0.0303
6,RRIRCRPPRLPRPRPRPVMGPRP,0.111
7,RRIRNRPPRLPRPRPRPDQGPRP,-0.257
8,RRIRRRPPRLPRPRPRPVMFPRP,0.155
9,RRIRYRPPRLPRPRPRPWSHPRP,-0.05
10,RRIRRRPPRLPRPRPRPGDLPRP,1.58
11,RRIRQRPPRLPRPRPRPFHMPRP,-0.0421
12,RRIRERPPRLPRPRPRPRPWPRP,0.298
13,RRIRGRPPRLPRPRPRPAQMPRP,0.305
14,RRIRPRPPRLPRPRPRPSLKPRP,-0.25
15,RRIRRRPPRLPRPRPRPPIAPRP,0.385
16,RRIRPRPPRLPRPRPRPHWNPRP,-0.447
17,RRIRERPPRLPRPRPRPVNAPRP,-0.353
18,RRIRSRPPRLPRPRPRPQAVPRP,0.197
19,RRIRCRPPRLPRPRPRPPTYPRP,-0.133
20,RRIRGRPPRLPRPRPRPPFVPRP,0.803
21,RRIRMRPPRLPRPRPRPNYAPRP,-0.193
22,RRIRQRPPRLPRPRPRPHAYPRP,-0.352

row,Sequence,shrunken log2 fold change
1,RRIRNRPPRLPRPRPRPPRDPRP,0.499
2,RRIRPRPPRLPRPRPRPGCGPRP,0.514
3,RRIRWRPPRLPRPRPRPDPMPRP,0.444
4,RRIRGRPPRLPRPRPRPKTSPRP,0.702
5,RRIRSRPPRLPRPRPRPSVQPRP,-0.0563
6,RRIRYRPPRLPRPRPRPLQYPRP,-0.624
7,RRIRSRPPRLPRPRPRPPWHPRP,0.0809
8,RRIRNRPPRLPRPRPRPHCCPRP,-0.215
9,RRIRQRPPRLPRPRPRPMTQPRP,-0.0451
10,RRIRSRPPRLPRPRPRPCLQPRP,-0.197
11,RRIRHRPPRLPRPRPRPVMMPRP,-0.123
12,RRIRDRPPRLPRPRPRPLYDPRP,-0.107
13,RRIRTRPPRLPRPRPRPFDMPRP,-0.00208
14,RRIRKRPPRLPRPRPRPVGWPRP,0.897
15,RRIRPRPPRLPRPRPRPQAGPRP,0.00187
16,RRIRRRPPRLPRPRPRPCCGPRP,0.0161
17,RRIRDRPPRLPRPRPRPLRMPRP,0.409
18,RRIRDRPPRLPRPRPRPHDTPRP,-0.123
19,RRIRIRPPRLPRPRPRPTYWPRP,-0.421
20,RRIRQRPPRLPRPRPRPQSLPRP,-0.0818
21,RRIRNRPPRLPRPRPRPRMDPRP,-0.104
22,RRIRTRPPRLPRPRPRPSDYPRP,-0.278

row,Sequence,shrunken log2 fold change
1,RRIRVRPPRLPRPRPRPWLDPRP,0.183
2,RRIRKRPPRLPRPRPRPGFMPRP,0.184
3,RRIRERPPRLPRPRPRPVMGPRP,-0.123
4,RRIRHRPPRLPRPRPRPFWLPRP,0.137
5,RRIRTRPPRLPRPRPRPIVEPRP,0.0431
6,RRIRNRPPRLPRPRPRPHATPRP,0.00661
7,RRIRCRPPRLPRPRPRPVEAPRP,0.338
8,RRIRSRPPRLPRPRPRPAFMPRP,0.309
9,RRIRIRPPRLPRPRPRPVFAPRP,0.0576
10,RRIRMRPPRLPRPRPRPYVYPRP,-0.175
11,RRIRPRPPRLPRPRPRPMVTPRP,-0.0789
12,RRIRERPPRLPRPRPRPTQIPRP,0.0737
13,RRIRWRPPRLPRPRPRPMFMPRP,-0.209
14,RRIRDRPPRLPRPRPRPCNVPRP,0.0436
15,RRIRKRPPRLPRPRPRPHLAPRP,0.0615
16,RRIRARPPRLPRPRPRPPTMPRP,0.407
17,RRIRWRPPRLPRPRPRPAWDPRP,1.05
18,RRIRKRPPRLPRPRPRPCHFPRP,-0.0404
19,RRIRVRPPRLPRPRPRPGNEPRP,-0.203
20,RRIRRRPPRLPRPRPRPHDDPRP,0.341
21,RRIRPRPPRLPRPRPRPLSHPRP,-0.27
